# Values joined by “and” are separate entries in the source; they are usually repeats but may differ in a detail not shown here. Equal values may be shown once.
# Assays:
# PANC-1 cells = test: MTT proliferation assay, PANC-1; format: cell-based, human; conditions: for Mean Absorbance (570 nM) ± S.E.: single experiments 1-3
# MDA-MB-231 cells = test: MTT proliferation assay, MDA-MB-231; format: cell-based, human
# endogenous STAT3 = target: T1, endogenous STAT3 (Homo sapiens, UniProt P40763); test: Immunoprecipitation of endogenous STAT3 from MDA-MB-231 lysate, Western blot; format: binding; conditions: FIG. 3
# T1 construct: endogenous STAT3 immunoprecipitated with all sdAbs tested at varying amounts; endogenous in cells
# T1 sequence (P40763 whole entry): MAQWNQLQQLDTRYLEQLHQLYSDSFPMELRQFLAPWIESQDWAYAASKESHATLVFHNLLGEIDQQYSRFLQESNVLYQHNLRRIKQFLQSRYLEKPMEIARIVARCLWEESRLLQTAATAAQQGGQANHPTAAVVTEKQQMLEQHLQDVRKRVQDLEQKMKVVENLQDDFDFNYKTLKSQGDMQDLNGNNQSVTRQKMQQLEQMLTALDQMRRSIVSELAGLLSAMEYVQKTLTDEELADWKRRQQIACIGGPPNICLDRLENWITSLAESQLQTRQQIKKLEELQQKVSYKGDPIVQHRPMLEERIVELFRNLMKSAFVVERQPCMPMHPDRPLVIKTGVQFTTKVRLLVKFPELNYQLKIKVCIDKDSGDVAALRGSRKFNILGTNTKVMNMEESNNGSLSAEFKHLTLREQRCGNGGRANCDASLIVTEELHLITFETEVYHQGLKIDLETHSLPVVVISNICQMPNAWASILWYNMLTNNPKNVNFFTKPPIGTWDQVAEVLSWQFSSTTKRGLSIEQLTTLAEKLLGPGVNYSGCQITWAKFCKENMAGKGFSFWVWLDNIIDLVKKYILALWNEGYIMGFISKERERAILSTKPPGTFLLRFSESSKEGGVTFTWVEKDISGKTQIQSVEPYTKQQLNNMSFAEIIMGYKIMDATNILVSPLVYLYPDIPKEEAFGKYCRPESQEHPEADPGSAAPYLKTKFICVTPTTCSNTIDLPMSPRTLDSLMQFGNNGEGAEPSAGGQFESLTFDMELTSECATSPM
# Description: The specificity of STAT3 sdAbs was assayed in human breast cancer cells. […] The cells were then disrupted in freshly prepared ice-cold lysis buffer (20 mM HEPES, pH 7.9, 400 mM NaCl, 0.1% NP-40, 10% glycerol, 1 mM sodium vanadate, 1 mM sodium fluoride, 1 mM dithiothreitol, 1 mM phenylmethylsulfonyl fluoride, 10 μg/mL aprotinin, 10 μg/mL leupeptin) for 45 minutes on ice. Lysates were then centrifuged, the supernatant collected, and protein concentration was determined using a modified Lowry method (Bio Rad, Hercules, Calif.). Total protein (1 mg) was incubated with 1.5 mg of Dynabeads (Invitrogen) with sdAbs against STAT3, a positive control (STAT3, cat#SC-482, Santa Cruz Biotechnology, Dallas, Tex.), or negative control (STAT-1, cat#9172, Cell Signaling, Danvers, Mass.) for 1 hour at 4° C. Beads were then washed. Following the final wash, 60 μl of lysis buffer was added, and the resulting supernatant was subject to Western blot analysis. Briefly, samples were separated on 10% polyacrylamide gels and transferred to a nitrocellulose membrane. The membranes were blocked, then incubated with appropriate primary and secondary antibodies. Anti-STAT3 antibody, used as a positive control, was from Cell Signaling (Cat#4904, Danvers, Mass.). The chemiluminescence reaction was performed using the ECL system from Santa Cruz Biotechnology (Dallas, Tex.).
# [1] = test system: STAT3 reporter, induction by interleukin-6; test: STAT3 reporter GloResponse SIE-luc2P/HEK293 cell assay, IL-6 induction; format: cell-based;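 also: IL-6 added at 40 ng/mL (EC80) for roughly one day after pretreatment, luciferase luminescence read with Bio-Glo reagent, untreated +IL6 wells serve as control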
# [2] = test system: GloResponse SIE-luc2P/HEK 293 cells; test: BCA protein concentration of reporter cells run in parallel; format: cell-based
# [3] = test system: rabbit anti-llama biotinylated antibody or his-probe (H-3) biotin labeled antibody; test: ELISA with sdAbs coated, binding of secondary antibodies (Experiments 2 and 3)
# Description: Two assays (Experiment 2 and 3) were performed to assess the binding of the secondary antibody to the sdAbs. A similar ELISA method was utilized except the sdAbs were directly coated onto the assay plate at a concentration of 1 μg/mL. Plates were incubated overnight at 2-8° C. After the incubation, plates were washed (3×) and blocked (3% BSA in PBS) for at least one hour at room temperature.
# After removal of the blocking buffer and washing (3×), the secondary antibodies, either rabbit anti-llama biotinylated antibody or his-probe (H-3) biotin labeled antibody at was then added at a 1:5,000 dilution to each well and incubated with shaking for at least one hour at room temperature. Only the rabbit anti-llama biotinylated antibody was used in Experiment 2. Both antibodies were run in parallel in Experiment 3.
# After the incubation with secondary antibody, the plates were again washed (3×) and HRP at a 1:50,000 dilution was added to each well. Plates were incubated with shaking for at least one hour at room temperature. One last wash (3×) was performed followed by the addition of TMB substrate and plates were incubated at room temperature. For the anti-llama biotinylated antibody stop solution was added to halt the colorimetric reaction at 10 minutes. The his-probe (H-3) biotin labeled antibody was allowed to incubate for 20 minutes prior to stopping. The absorbance at 450 nm was measured as before.
# [4] = MDA-MB-231, 5 days of treatment, 0.5 μg/ml
# [5] = MDA-MB-231, 5 days of treatment, 1.0 μg/ml
# [6] = MDA-MB-231, 5 days of treatment, 10.0 μg/ml
# [7] = MDA-MB-231, 5 days of treatment, 100.0 μg/ml
# [8] = 24 Hour Treatment Prior to IL6 Induction, high conc.: VHH13 55.8 μg/mL, VHH14 84.3 μg/mL, BB1608 4.16 μM, VHH69 50.5 μg/mL
# [9] = 24 Hour Treatment Prior to IL6 Induction, low conc.: VHH13, VHH14, VHH69 10 μg/mL, BB1608 2 μM
# [10] = 48 Hour Treatment Prior to IL6 Induction, high conc.: VHH13 55.8 μg/mL, VHH14 84.3 μg/mL, BB1608 4.16 μM, VHH69 50.5 μg/mL
# [11] = 48 Hour Treatment Prior to IL6 Induction, low conc.: VHH13, VHH14, VHH69 10 μg/mL, BB1608 2 μM
molecule,measurement,setting,value
"H.VHH14: anti-STAT3 sdAb VHH14 (SEQ ID NO:4), presumably the form produced in mammalian cells (protein, Camelid) VHH: QVQLVESGGGSVQAGGSLRLSCVASTYTGCMGWFRQAPGKEREGVAALSSRGFAGHYTDSVKGRFSISRDYVKNAVYLQMNTVKPEDAAMYYCAAREGWECGETWLDRTAGGHTYWGQGTLVTVSS","Mean Absorbance (570 nM) ± S.E., Overall Mean","PANC-1 cells; PANC-1, Day 3, 10.0 μg/ml",1.089 ± 0.085
same,Mean Absorbance (570 nM) ± S.E.,"PANC-1 cells; PANC-1, Day 3, 10.0 μg/ml",0.920 ± 0.133 and 1.183 ± 0.114 and 1.163 ± 0.044
same,"Mean Absorbance (570 nM) ± S.E., Overall Mean","PANC-1 cells; PANC-1, Day 3, 100 μg/ml",0.906 ± 0.054
same,Mean Absorbance (570 nM) ± S.E.,"PANC-1 cells; PANC-1, Day 3, 100 μg/ml",0.808 ± 0.239 and 0.993 ± 0.088 and 0.916 ± 0.088
same,"Mean Absorbance (570 nM) ± S.E., Overall Mean","PANC-1 cells; PANC-1, Day 5, 10.0 μg/ml",1.368 ± 0.247
same,Mean Absorbance (570 nM) ± S.E.,"PANC-1 cells; PANC-1, Day 5, 10.0 μg/ml",1.859 ± 0.033 and 1.165 ± 0.015 and 1.081 ± 0.103
same,"Mean Absorbance (570 nM) ± S.E., Overall Mean","PANC-1 cells; PANC-1, Day 5, 100 μg/ml",0.754 ± 0.333
same,% Inhibition,"MDA-MB-231 cells; MDA-MB-231, 3 days of treatment, 1.0 μg/ml",0.5%
same,% Inhibition,MDA-MB-231 cells; [4],9.5%
same,% Inhibition,MDA-MB-231 cells; [5],4.9%
same,% Inhibition,MDA-MB-231 cells; [6],18.2%
same,% Inhibition,MDA-MB-231 cells; [7],18.9%
same,Mean Absorbance (570 nM) ± S.E.,"MDA-MB-231 cells; MDA-MB-231, Day 3, 0.5 μg/ml",0.485 ± 0.040
same,Mean Absorbance (570 nM) ± S.E.,"MDA-MB-231 cells; MDA-MB-231, Day 3, 1.0 μg/ml",0.402 ± 0.017
same,Mean Absorbance (570 nM) ± S.E.,"MDA-MB-231 cells; MDA-MB-231, Day 3, 10.0 μg/ml",0.588 ± 0.020
same,Mean Absorbance (570 nM) ± S.E.,"MDA-MB-231 cells; MDA-MB-231, Day 3, 100 μg/ml",0.416 ± 0.030
same,Mean Absorbance (570 nM) ± S.E.,"MDA-MB-231 cells; MDA-MB-231, Day 5, 0.5 μg/ml",0.890 ± 0.021
same,Mean Absorbance (570 nM) ± S.E.,"MDA-MB-231 cells; MDA-MB-231, Day 5, 1.0 μg/ml",0.935 ± 0.037
same,Mean Absorbance (570 nM) ± S.E.,"MDA-MB-231 cells; MDA-MB-231, Day 5, 10.0 μg/ml",0.804 ± 0.015
same,Mean Absorbance (570 nM) ± S.E.,"MDA-MB-231 cells; MDA-MB-231, Day 5, 100 μg/ml",0.797 ± 0.010
same,immunoprecipitation of endogenous STAT3,endogenous STAT3,immunoprecipitated
"Anti-STAT3 VHH14: second anti-STAT3 single domain antibody, SEQ ID NO:4 (protein, Camelid) VHH: QVQLVESGGGSVQAGGSLRLSCVASTYTGCMGWFRQAPGKEREGVAALSSRGFAGHYTDSVKGRFSISRDYVKNAVYLQMNTVKPEDAAMYYCAAREGWECGETWLDRTAGGHTYWGQGTLVTVSS",% Inhibition,"MDA-MB-231 cells; MDA-MB-231, 3 days of treatment, 10.0 μg/ml",23.1%
same,% Inhibition,"MDA-MB-231 cells; MDA-MB-231, 3 days of treatment, 100.0 μg/ml",57.0%
same,Overall Average % Inhibition,"MDA-MB-231 cells; MDA-MB-231, 3 days, 10.0 μg/ml",26.2%
same,Mean Growth Inhibition,"MDA-MB-231 cells; MDA-MB-231, 3 days, 10.0 μg/ml, single experiments 1-4, listed as B.VHH14",23.1% and 20.0% and 38.5% and 23.3%
same,Overall Average % Inhibition,"MDA-MB-231 cells; MDA-MB-231, 3 days, 100 μg/ml",55.7%
same,Mean Growth Inhibition,"MDA-MB-231 cells; MDA-MB-231, 3 days, 100 μg/ml, single experiments 1-4, listed as B.VHH14",57.0% and 42.8% and 62.3% and 60.6%
same,% Inhibition,MDA-MB-231 cells; [4],0%
same,% Inhibition,MDA-MB-231 cells; [5],0%
same,% Inhibition,MDA-MB-231 cells; [6],5.5%
same,% Inhibition,MDA-MB-231 cells; [7],18.9%
same,Overall Average % Inhibition,"MDA-MB-231 cells; MDA-MB-231, 5 days, 10.0 μg/ml",14.9%
same,Overall Average % Inhibition,"MDA-MB-231 cells; MDA-MB-231, 5 days, 100 μg/ml",38.6%
same,Mean Absorbance (570 nM) ± S.E.,"MDA-MB-231 cells; MDA-MB-231, Day 3, 0.5 μg/ml",0.666 ± 0.022
same,Mean Absorbance (570 nM) ± S.E.,"MDA-MB-231 cells; MDA-MB-231, Day 3, 1.0 μg/ml",0.644 ± 0.045
same,Mean Absorbance (570 nM) ± S.E.,"MDA-MB-231 cells; MDA-MB-231, Day 3, 10.0 μg/ml",0.456 ± 0.048
same,Mean Absorbance (570 nM) ± S.E.,"MDA-MB-231 cells; MDA-MB-231, Day 3, 100 μg/ml",0.255 ± 0.005
same,Mean Absorbance (570 nM) ± S.E.,"MDA-MB-231 cells; MDA-MB-231, Day 5, 0.5 μg/ml",0.733 ± 0.038
same,Mean Absorbance (570 nM) ± S.E.,"MDA-MB-231 cells; MDA-MB-231, Day 5, 1.0 μg/ml",0.794 ± 0.023
same,Mean Absorbance (570 nM) ± S.E.,"MDA-MB-231 cells; MDA-MB-231, Day 5, 10.0 μg/ml",0.640 ± 0.011
same,Mean Absorbance (570 nM) ± S.E.,"MDA-MB-231 cells; MDA-MB-231, Day 5, 100 μg/ml",0.549 ± 0.023
same,"Mean Absorbance (570 nM) ± S.E., Overall Mean","MDA-MB-231 cells; Table 6, MDA-MB-231, Day 3, 10.0 μg/ml",0.504 ± 0.021
same,Mean Absorbance (570 nM) ± S.E.,"MDA-MB-231 cells; Table 6, MDA-MB-231, Day 3, 10.0 μg/ml, single experiments 1-4, listed as B.VHH14",0.456 ± 0.048 and 0.499 ± 0.018 and 0.502 ± 0.048 and 0.559 ± 0.041
same,"Mean Absorbance (570 nM) ± S.E., Overall Mean","MDA-MB-231 cells; Table 6, MDA-MB-231, Day 3, 100 μg/ml",0.302 ± 0.043
same,Mean Absorbance (570 nM) ± S.E.,"MDA-MB-231 cells; Table 6, MDA-MB-231, Day 3, 100 μg/ml, single experiments 1-4, listed as B.VHH14",0.255 ± 0.005 and 0.357 ± 0.019 and 0.308 ± 0.021 and 0.287 ± 0.021
same,"Mean Absorbance (570 nM) ± S.E., Overall Mean","MDA-MB-231 cells; Table 7, MDA-MB-231, Day 5, 10.0 μg/ml",0.688 ± 0.131
same,"Mean Absorbance (570 nM) ± S.E., Overall Mean","MDA-MB-231 cells; Table 7, MDA-MB-231, Day 5, 100 μg/ml",0.475 ± 0.0690
same,Average RLU,[1]; [8],496624 RLU
same,Average RLU with Media Blank,[1]; [8],496598 RLU
same,"Luminescence (RLU), single wells",[1]; [8],465649 RLU and 520343 RLU and 503880 RLU
same,Average RLU,[1]; [9],214828 RLU
same,Average RLU with Media Blank,[1]; [9],214803 RLU
same,"Luminescence (RLU), single wells",[1]; [9],218125 RLU and 203210 RLU and 223150 RLU
same,Average RLU,[1]; [10],480595 RLU
same,Average RLU with Media Blank,[1]; [10],480562 RLU
same,"Luminescence (RLU), single wells",[1]; [10],494706 RLU and 488307 RLU and 458771 RLU
same,Average RLU,[1]; [11],232537 RLU
same,Average RLU with Media Blank,[1]; [11],232504 RLU
same,"Luminescence (RLU), single wells",[1]; [11],241785 RLU and 236843 RLU and 218982 RLU
same,effect on IL-6 induction of STAT3 reporter,[1]; 24 hours and 48 hours treatment prior to IL-6,enhancement of the IL-6 induction
same,Protein concentration,[2]; [8],270
same,Protein concentration,[2]; [9],189
same,Protein concentration,[2]; [10],229
same,Protein concentration,[2]; [11],216
same,immunoprecipitation of endogenous STAT3,endogenous STAT3,immunoprecipitated
same,OD450 Values,"[3]; His-probe (H-3), Experiment 3, stored 1:100 dilution of sdAb",3.416
same,OD450 Values,"[3]; Rabbit anti-Llama Secondary Antibody, Experiment 2, sdAb coated at 1 μg/mL",2.813
same,OD450 Values,"[3]; Rabbit anti-Llama Secondary Antibody, Experiment 3, stored 1:100 dilution of sdAb",2.439

# From US20170327598A1, “SINGLE DOMAIN ANTIBODIES DIRECTED AGAINST INTRACELLULAR ANTIGENS” (SINGH MOLECULAR MEDICINE, LLC, priority 2014, published 2017)
